Target: Clathrin triskelions (bovine (purified from bovine brain), UniProt P49951 1-1675)
Test: SPR

Chain of Clathrin triskelions (P49951 whole entry): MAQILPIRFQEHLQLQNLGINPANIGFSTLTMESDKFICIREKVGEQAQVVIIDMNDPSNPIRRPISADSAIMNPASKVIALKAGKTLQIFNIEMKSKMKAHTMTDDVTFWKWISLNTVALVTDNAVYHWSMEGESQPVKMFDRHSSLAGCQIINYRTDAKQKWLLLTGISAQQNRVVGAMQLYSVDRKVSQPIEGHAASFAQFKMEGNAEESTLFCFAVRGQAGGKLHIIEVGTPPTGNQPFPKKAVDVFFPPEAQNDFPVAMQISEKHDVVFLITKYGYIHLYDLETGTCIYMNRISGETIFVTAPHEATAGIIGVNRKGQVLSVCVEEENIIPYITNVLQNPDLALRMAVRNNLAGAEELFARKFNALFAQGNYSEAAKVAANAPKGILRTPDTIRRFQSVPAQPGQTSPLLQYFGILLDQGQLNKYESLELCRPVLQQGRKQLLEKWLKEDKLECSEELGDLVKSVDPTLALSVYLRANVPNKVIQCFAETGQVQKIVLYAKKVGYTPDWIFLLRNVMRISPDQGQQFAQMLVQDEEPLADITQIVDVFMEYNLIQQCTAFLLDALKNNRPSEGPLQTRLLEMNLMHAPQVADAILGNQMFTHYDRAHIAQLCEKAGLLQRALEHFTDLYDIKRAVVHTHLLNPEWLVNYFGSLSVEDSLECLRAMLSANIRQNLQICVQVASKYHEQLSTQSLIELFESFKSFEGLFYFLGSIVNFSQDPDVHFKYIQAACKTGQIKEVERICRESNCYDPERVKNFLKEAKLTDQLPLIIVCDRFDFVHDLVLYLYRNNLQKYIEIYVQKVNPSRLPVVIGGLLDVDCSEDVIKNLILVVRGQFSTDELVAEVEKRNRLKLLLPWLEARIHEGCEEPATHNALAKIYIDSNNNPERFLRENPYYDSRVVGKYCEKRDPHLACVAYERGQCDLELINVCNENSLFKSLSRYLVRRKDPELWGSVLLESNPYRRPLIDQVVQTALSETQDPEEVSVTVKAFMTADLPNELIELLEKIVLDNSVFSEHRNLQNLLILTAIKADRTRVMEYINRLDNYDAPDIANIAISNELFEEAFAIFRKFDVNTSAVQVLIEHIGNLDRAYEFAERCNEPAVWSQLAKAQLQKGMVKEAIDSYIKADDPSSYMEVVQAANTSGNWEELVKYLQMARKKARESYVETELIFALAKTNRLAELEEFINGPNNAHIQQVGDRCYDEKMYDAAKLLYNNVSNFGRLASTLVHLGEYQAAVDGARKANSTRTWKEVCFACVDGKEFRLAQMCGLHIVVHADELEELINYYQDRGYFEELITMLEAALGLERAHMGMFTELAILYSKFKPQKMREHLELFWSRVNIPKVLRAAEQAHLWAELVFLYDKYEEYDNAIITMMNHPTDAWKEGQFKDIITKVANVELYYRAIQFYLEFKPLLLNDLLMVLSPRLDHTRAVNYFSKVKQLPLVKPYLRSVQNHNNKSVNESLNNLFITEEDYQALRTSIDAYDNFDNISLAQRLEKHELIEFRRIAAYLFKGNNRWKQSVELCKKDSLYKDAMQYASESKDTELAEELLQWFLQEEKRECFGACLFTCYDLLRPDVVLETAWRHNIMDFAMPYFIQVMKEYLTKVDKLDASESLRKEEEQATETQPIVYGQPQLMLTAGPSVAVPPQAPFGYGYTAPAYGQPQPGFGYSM

## PWDLW [GFP-Wbox]
  Kd: 3.9 µM

Reference: article PMC5131575 (Biomaterials, 2016)
